Data as given in publication PMC10537722, “Proline Dehydrogenase and Pyrroline 5 Carboxylate Dehydrogenase from Mycobacterium tuberculosis: Evidence for Substrate Channeling” (Pathogens, 2023).

Legend:
[1] = biological target: T1, proline dehydrogenase (PruB) (Mycobacterium tuberculosis, UniProt O50444); assay: […]; added FAD makes little difference to activity; type: binding
T1 construct: gene Rv1188

[2] = tested on: O=C(O)[C@@H]1CCCN1; assay: purified protein; conditions: FAD; pH 7.0; 25.0 °C
[3] = tested on: CC(C)=CCC1=C(C)C(=O)c2ccccc2C1=O; assay: purified protein; conditions: FAD; pH 7.0; 25.0 °C
[4] = tested on: CC1=C(CCC(C)C)C(=O)c2ccccc2C1=O; assay: purified protein; conditions: FAD; pH 7.0; 25.0 °C
[5] = tested on: COC1=C(OC)C(=O)C(CC=C(C)C)=C(C)C1=O; assay: purified protein; conditions: FAD; pH 7.0; 25.0 °C
[6] = tested on: CC(C)=CCC/C(C)=C/CC1=C(C)C(=O)c2ccccc2C1=O; assay: purified protein; conditions: FAD; pH 7.0; 25.0 °C

T1 sequence (O50444 1-329): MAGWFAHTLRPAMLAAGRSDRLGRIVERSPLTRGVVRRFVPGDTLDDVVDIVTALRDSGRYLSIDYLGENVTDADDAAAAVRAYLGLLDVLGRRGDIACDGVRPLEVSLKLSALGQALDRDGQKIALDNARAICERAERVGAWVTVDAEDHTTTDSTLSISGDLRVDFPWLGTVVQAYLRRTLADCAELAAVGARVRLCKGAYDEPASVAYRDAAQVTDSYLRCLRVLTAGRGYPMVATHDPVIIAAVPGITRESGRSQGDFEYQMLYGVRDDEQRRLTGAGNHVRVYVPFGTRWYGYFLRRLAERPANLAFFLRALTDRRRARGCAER

| Molecule | co-purification with the enzyme (yellow protein); added FAD makes little differen [1] | Km [2] | kcat [2] | kcat/Km [2] | Km [3] | Km [4] | Km [5] | kcat [5] | kcat/Km [5] | Km [6] |
| --- | --- | --- | --- | --- | --- | --- | --- | --- | --- | --- |
| Cc1cc2nc3c(=O)[nH]c(=O)nc-3n(C[C@H](O)[C@H](O)[C@H](O)COP(=O)(O)OP(=O)(O)OC[C@H]3O[C@@H](n4cnc5c(N)ncnc54)[C@H](O)[C@@H]3O)c2cc1C [FAD] | the addition of FAD to the assay buffer resulted in little difference in activity, confirming the copurification |  |  |  |  |  |  |  |  |  |
| proline dehydrogenase (PruB) (Mycobacterium tuberculosis H37Rv) |  | 2.5 ± 0.3 mM | 1.7 s⁻¹ | 690 M⁻¹ s⁻¹ | 23 ± 3.2 µM | 46 ± 13 µM | 9.7 ± 1.4 µM | 2.3 s⁻¹ | 230000 M⁻¹ s⁻¹ | 12 ± 0.66 µM |
